Test results taken from US20180282402A1 (ATYR PHARMA, published 2018).
Changes are numbered by the printed parent chain.

B1: GARS Fc-WHEP (Fc fusion, UniProt P41250 63-119, looked up)
chain: VLAPLRLAVRQQGDLVRKLKEDKAPQVDVDKAVAELKARKRVLEAKELALQPKDDIV
notes: domain: WHEP domain; not shown: Fc domain
B2: VEGF-A121 (ligand, human, UniProt P15692-9 27-147, looked up)
chain: APMAEGGGQNHHEVVKFMDVYQRSYCHPIETLVDIFQEYPDEIEYIFKPSCVPLMRCGGCCNDEGLECVPTEESNITMQIMRIKPHQGQHIGEMSFLQHNKCECRPKKDRARQEKCDKPRR
B3: VEGF-C (ligand, human, UniProt P49767 103-227, looked up)
chain: TEETIKFAAAHYNTEILKSIDNEWRKTQCMPREVCIDVGKEFGVATNTFFKPPCVSVYRCGGCCNSEGLQCMNTSTSYLSKTLFEITVPLSQGPKPVTISFANHTSCRCMSKLDVYRQVHSIIRR
notes: also called Recombinant Human VEGF-C Protein
B4: AB13-288 (IgG4-2 kappa) (antibody, V domains shown)
VH: QVQLVESGGGLVKPGGSLRLSCAASGFTFSDYYMSWIRQAPGKGLEWVSYISDKSRYTKYTDKVRGRFTISRDNAKNSLYLQMNSLRAEDTAVYYCARYLYQVIAIADAWGQGTLVTVSS
VL: DIQMTQSPSSVSASVGDRVTITCRASQGISSWLAWFQQKPGKAPKLLIFVASNLESGVPSRFSGSGSGTDFTLTISSLQPEDFATYYCQQAESFPYTFGQGTKLEIK
notes: Human
B5: AB13-433 (antibody, V domains shown)
VH: B4 VH with K54S, R56T, K59N, K63S, I106V, A109S
VL: B4 VL with F49Y, E92N
notes: Human; IgG1m(zf) kappa
B6: KL31-467 (antibody, V domains shown)
VH: QVQLVQSGAEVKKPGASVKVSCKASGYTFTDYCIGWIRQAPGQGLEWMGDICPGDTYTNDNEKFKDRATMTADTSTSTAYMELSSLRSEDTAVYYCARGEEQLGLRNAMDYWGQGTLVTVSS
VL: DIVMTQSPDSLAVSLGERATINCQSQSVSTSTYNYMHWYQQKPGQPPKLLIKYASNLESGVPDRFSGSGSGTDFTLTISSLQAEDVATYYCQHSWEIPWTFGGGTKVEIK
notes: Humanized; IgG1m(zf) kappa
B7: KL31-356 (antibody, IgG4, V domains shown)
VH: B6 VH
VL: B6 VL
notes: Humanized; IgG4-2 kappa
B8: KL31-478 (antibody, V domains shown)
VH: B6 VH
VL: EIVLTQSPATLSLSPGERATLSCQSQSVSTSTYNYMHWYQQKPGQAPRLLIKYASNLESGIPDRFSGSGSGTDFTLTISRLEPEDFATYYCGHSYEIPWTFGGGTKVEIK
notes: Humanized; IgG1m(zf) kappa
B9: VEGF-A145 (ligand, human, UniProt P15692-6 27-171, looked up)
chain: APMAEGGGQNHHEVVKFMDVYQRSYCHPIETLVDIFQEYPDEIEYIFKPSCVPLMRCGGCCNDEGLECVPTEESNITMQIMRIKPHQGQHIGEMSFLQHNKCECRPKKDRARQEKKSVRGKGKGQKRKRKKSRYKSWSVCDKPRR
B10: WARS WHEP (other, UniProt P23381 8-64, looked up)
chain: SLLELFNSIATQGELVRSLKAGNASKDEIDSAVKMLVSLKMSYKAAAGEDYKADCPP
notes: domain: WHEP domain; also called WHEP domain of WARS with a V5/His tag; not shown: V5/His tag
B11: MARS Fc-WHEP (Fc fusion, UniProt P56192 841-897, looked up)
chain: QIQALMDEVTKQGNIVRELKAQKADKNEVAAEVAKLLDLKKQLAVAEGKPPEAPKGK
notes: as for B1

Assays:
[1] = target: T1, NRP2-Fc (R&D Systems #2215-N2) (human, UniProt O60462 23-864, limits assumed); test: SPR: NRP2 as analyte over immobilized GARS Fc-WHEP [panel B]
T1 construct: Bought reagent used as NRP2 in the SPR experiments; also called human NRP2; Neuropilin 2; not shown: Fc

[2] = target: T1, NRP2-Fc (R&D Systems #2215-N2); test: SPR; column Binding to NRP2 observed by SPR
[3] = target: T2, NRP2a-GFP fusion protein on HEK293T cells (human, UniProt O60462 23-931); test: competition assay, immunofluorescence microscopy on HEK293T cells expressing NRP2v2-GFP, GFP-bright gate; VEGF-C titrated, competitor 175 nM Fc-HRS(2-60)/anti-Fc-PE [panel A]
T2 construct: Transiently expressed; cells fixed before staining; also called NRP2v2-GFP; cell-expressed NRP2a; not shown: GFP (Origene RG220706, NM_003872 ORF clone)
Experimental: HEK293T cells previously transfected with NRP2v2-GFP were passed the night before staining to 96 well Greiner Clear flat bottomed Microplates pre-coated with collagen coating solution. Supernatants were removed and cells were washed 1 time with binding buffer. Cells were then fixed with 50 μL of 3.7% methanol-free formaldehyde for 20 minutes at room temperature. Cells were washed 2× with binding buffer and then blocked with 100 μL of blocking buffer for 1 hour at room temperature. The cells were then washed one time with binding buffer and then incubated with 50 μL of staining complex overnight at 4 degrees Celsius. Cells were then washed 3 times with binding buffer, and then nuclei were counter stained with […] Hoechst diluted in DPBS for 10 minutes at room temperature. The Hoechst stain was replaced with 1×PBS and subsequently read on an IN Cell Analyzer 2200. 20× images were acquired and analyzed using In Cell Analyzer 1000 Workstation software. Segmentation of the cell mask was achieved using the GFP channel, and the average PE signal intensity was determined within this mask above a threshold intensity of 5000 (termed GFP Bright cells).

[4] = target: T3, Human HARS (human, UniProt P12081 1-509, limits assumed); test: SPR (ProteOn); HRS protein immobilized, antibody as analyte
T3 construct: also called human HRS; human histidyl-tRNA synthetase
T3 sequence: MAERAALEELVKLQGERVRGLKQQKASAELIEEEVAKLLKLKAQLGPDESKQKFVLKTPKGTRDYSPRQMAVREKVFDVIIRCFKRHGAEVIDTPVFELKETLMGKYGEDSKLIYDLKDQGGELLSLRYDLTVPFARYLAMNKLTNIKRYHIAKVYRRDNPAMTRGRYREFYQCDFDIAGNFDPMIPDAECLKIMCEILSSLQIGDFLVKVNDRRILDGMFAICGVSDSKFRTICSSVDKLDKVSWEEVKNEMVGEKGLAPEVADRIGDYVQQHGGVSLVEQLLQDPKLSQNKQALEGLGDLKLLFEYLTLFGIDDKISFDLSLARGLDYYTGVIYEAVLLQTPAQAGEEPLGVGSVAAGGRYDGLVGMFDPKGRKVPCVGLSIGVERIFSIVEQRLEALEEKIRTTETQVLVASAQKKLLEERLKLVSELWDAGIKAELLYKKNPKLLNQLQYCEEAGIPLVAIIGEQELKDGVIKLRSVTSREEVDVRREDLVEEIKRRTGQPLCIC

[5] = target: T4, Mouse HARS (mouse, UniProt Q61035 1-509, limits assumed); test: as above
T4 construct: also called mouse HRS
T4 sequence: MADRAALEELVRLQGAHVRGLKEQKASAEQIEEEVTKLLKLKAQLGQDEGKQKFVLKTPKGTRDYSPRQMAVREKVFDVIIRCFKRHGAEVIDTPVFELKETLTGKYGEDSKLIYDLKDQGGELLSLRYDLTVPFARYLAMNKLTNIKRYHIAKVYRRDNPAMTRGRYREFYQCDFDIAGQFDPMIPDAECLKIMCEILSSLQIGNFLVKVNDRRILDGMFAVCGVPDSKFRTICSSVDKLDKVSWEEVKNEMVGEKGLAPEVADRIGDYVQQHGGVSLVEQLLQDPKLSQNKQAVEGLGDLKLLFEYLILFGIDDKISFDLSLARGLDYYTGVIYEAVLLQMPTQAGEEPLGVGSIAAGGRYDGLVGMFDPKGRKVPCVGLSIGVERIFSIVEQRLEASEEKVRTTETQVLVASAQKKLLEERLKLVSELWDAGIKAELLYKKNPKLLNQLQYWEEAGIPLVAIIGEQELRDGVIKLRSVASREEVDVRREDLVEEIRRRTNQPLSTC

[6] = target: T5, Fc-HRS(2-60) (human, UniProt P12081 2-60); test: flow cytometry blocking assay: 43.75 nM biotinylated Fc-HRS(2-60) complexed with 87.5 nM streptavidin-PE, added with titrated antibody to Expi293 cells stably expressing NRP2, the blocked partner [panel A]
T5 construct: Fc at the N-terminus, HRS residues 2-60 (WHEP domain) at the C-terminus; in the imaging assay pre-complexed with anti-Fc-PE; also called HRS-Fc fusion protein construct; ATYR1923; not shown: human IgG Fc region
T5 sequence: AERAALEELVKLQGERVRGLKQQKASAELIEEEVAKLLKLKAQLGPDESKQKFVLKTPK

[7] = target: T5, Fc-HRS(2-60); test: flow cytometry blocking assay: 43.75 nM biotinylated Fc-HRS(2-60) complexed with 87.5 nM streptavidin-PE, added with titrated antibody to Expi293 cells stably expressing NRP2, the blocked partner [panel B]
[8] = target: T1, NRP2-Fc (R&D Systems #2215-N2); test: SPR: NRP2 as analyte over immobilized WARS WHEP [panel D]
[9] = target: T1, NRP2-Fc (R&D Systems #2215-N2); test: SPR: NRP2 as analyte over immobilized MARS Fc-WHEP [panel C]

| Binder | Kd [4] | Kd [5] | further results |
| --- | --- | --- | --- |
| B1 | – | – | binding result [1]: no binding (tested: 20 nM) |
| B2 | – | – | binding result [2]: no binding |
| B3 | – | – | IC50 (read off the curve) [3]: ~2 nM |
| B4 | < 0.001 nM | 0.023 nM | – |
| B5 | 0.21 nM | 0.21 nM | – |
| B6 | 0.21 nM | 0.96 nM | IC50 (read off the curve) [6]: ~20 nM |
| B7 | 0.3 nM | 1.4 nM | IC50 (read off the curve) [6]: ~20 nM |
| B8 | 0.076 nM | 0.614 nM | IC50 (read off the curve) [7]: ~10 nM |
| B9 | – | – | binding result [2]: no binding |
| B10 | – | – | binding result [8]: no binding (tested: 20 nM) |
| B11 | – | – | binding result [9]: no binding (tested: 20 nM) |
